According to patent US20210163580A1 (NATIONAL HEALTH RESEARCH INSTITUTES, published 2021):
No end group written: not given here. *: point of attachment. Biotin = O=C1N[C@H]2[C@H](CS[C@H]2CCCCC(=O)*)N1

How the values were obtained:
RSPO1 [1] = target: T1, RSPO1 (UniProt Q2MKA7 21-263, limits assumed); test: Western blot: RSPO1-4 on the blot, probed with the hybridoma antibody [B]
RSPO2 [2] = target: T2, RSPO2 (UniProt Q6UXX9 22-243, limits assumed); test: as above
RSPO4 [3] = target: T3, RSPO4 (UniProt Q2I0M5 20-234, limits assumed); test: as above
[4] = target: T4, recombinant human RSPO3 protein (human, UniProt Q9BXY4 22-272); test: ELISA on coated antigen (BSA, RSPO1, RSPO2, RSPO3, RSPO4), absorbance 450 nm [B]
T4 construct: Used biotinylated on Octet sensors, immobilised on a CM5 chip in Biacore, and coated on ELISA plates; also called hRSPO3; huRSPO3
T4 sequence (looked up): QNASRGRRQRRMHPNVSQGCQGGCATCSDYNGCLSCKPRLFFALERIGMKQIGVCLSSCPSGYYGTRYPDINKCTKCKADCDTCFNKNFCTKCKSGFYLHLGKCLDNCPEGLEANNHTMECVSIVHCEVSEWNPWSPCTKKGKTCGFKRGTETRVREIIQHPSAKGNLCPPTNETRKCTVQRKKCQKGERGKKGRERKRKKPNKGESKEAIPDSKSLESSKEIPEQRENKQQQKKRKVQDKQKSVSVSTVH

[5] = target: T4, recombinant human RSPO3 protein; test: cell-based or functional assay
[6] = target: T4, recombinant human RSPO3 protein; test: SPR (Biacore T200); hRSPO3 immobilised on CM5 chip, antibody injected, single-cycle, 1:1 model
Description: FIG. 7 is a graph showing use of Biacore to measure the binding kinetics of α-RSPO3 Abs-antigen interaction. The binding sensorgrams were generated using a Biacore T200 and then fitted to a simple 1:1 interaction model. […] The association was monitored for 2 min, and the final dissociation time was 15 min hRSPO3 was immobilized on a CMS chip at 27.5 RU.
The binding kinetics between α-RSPO3 Abs and recombinant human RSPO3 protein (hRSPO3) were performed at 25° C. using a Biacore T200 biosensor equipped with a CMS Series S Sensor Chip (GE Healthcare). […] Obtained sensorgrams were corrected by double subtracting the signal obtained on a reference surface and the signal of the running buffer. Sensograms were fit globally with BIAcore T200 evaluation software 3.0 using 1:1 binding model to yield affinity constants (KD values) for α-RSPO3 Abs. Replicate measurements were made in separate experiments, using independently prepared α-RSPO3 Abs dilution series and huRSPO3-coated chip surfaces.

RSPO1 [7] = target: T1, RSPO1; test: Western blot: RSPO1-4 on the blot, probed with the hybridoma antibody [A]
RSPO2 [8] = target: T2, RSPO2; test: as above
RSPO4 [9] = target: T3, RSPO4; test: as above
[10] = target: T4, recombinant human RSPO3 protein; test: BLI (Octet, ForteBio); biotinylated RSPO3 on streptavidin sensors
Description: The streptavidin-coated sensors were coated with 10 μg/ml of biotinylated RSPO3 as described in the handbook of ForteBio. Antibody concentrations were in the range of 0.75 and 93.8 nM. Quantitative kinetic binding analysis was performed with pH-adjusted PBS with 0.5% BSA. All steps were run at 30° C. with a continuous shaking speed at 1000 rpm.
To assess the RSPO3-binding affinities of the antibodies, kinetics assays were performed by the Octetsystems.

GKKGRERKRK = target: T5, GKKGRERKRK; test: PepSet ELISA: biotinylated 10-mer on NeutrAvidin plate, antibody 10 µg/ml, OD450 [C]
T5 construct: member of the PepSet library m27
T5 peptide: Biotin-SGSGGKKGRERKRK
From the text: (§1) FIG. 8 is a set of graphs showing mapping of the α-RSPO3 Ab epitopes on RSPO3 protein by Pep-set.
(§2) The deduced amino acid sequence of RSPO3 (GenBank accession no. NP_116173) was used as the reference sequence to design the PepSet library of biotinylated linear peptides that cover the mature domain of RSPO3. The 121 peptides synthesized by Mimotopes (Victoria, Australia) were 10 amino acids in length and offset by 2 residues in these two formats: Biotin-SGSG-PEPTIDE-NH2 for N-terminal peptide and Biotin-SGSG-PEPTIDE-OH for the C-terminal peptide. The peptides (1-3 mg) were dissolved in 200 microliter 80/20 DMSO/water mixture and further diluted at 1:200 in PBS containing 0.1% BSA and 0.1% sodium azide as working solution. In order to attach different biotinylated peptides on each well of the plates, plates coated with NeutrAvidin and blocked with BSA (Thermo Scientific Pierce, Rockford, Ill.) were utilized. Plates were washed three times with 1× PBS with 0.1% Tween 20 and then […] biotinylated peptide solution was applied to each well of plates. After one hour incubation at room temperature, plates were washed three times again with 1× PBST. α-RSPO3 antibodies at 10 μg/ml were then added to each well of plates and the plates were incubated with agitation for one hour. […] To detect bound anti-RSPO3 antibodies, Goat anti-human IgG-Fc-HPR was then applied to plates for one hour. After removing extra detection antibodies by washing the plates with 1× PBST, 100 μl Tetramethylbenzidine (TMB) substrate solution was added to each well for 20 minutes.

ERGKKGRERK = target: T6, ERGKKGRERK; test: as above
T6 construct: member of the PepSet library m27
T6 peptide: Biotin-SGSGERGKKGRERK
From the text: as §1, §2

KGRERKRKKP = target: T7, KGRERKRKKP; test: as above
T7 construct: member of the PepSet library m27
T7 peptide: Biotin-SGSGKGRERKRKKP
From the text: as §1, §2

RENKQQQKKR = target: T8, RENKQQQKKR; test: as above
T8 construct: member of the PepSet library m27
T8 peptide: Biotin-SGSGRENKQQQKKR
From the text: as §1, §2

RSPO1 [11] = target: T1, RSPO1; test: ELISA on coated antigen (BSA, RSPO1, RSPO2, RSPO3, RSPO4), absorbance 450 nm [A]
RSPO2 [12] = target: T2, RSPO2; test: as above
RSPO4 [13] = target: T3, RSPO4; test: as above

T3 sequence (Q2I0M5 20-234 limits assumed): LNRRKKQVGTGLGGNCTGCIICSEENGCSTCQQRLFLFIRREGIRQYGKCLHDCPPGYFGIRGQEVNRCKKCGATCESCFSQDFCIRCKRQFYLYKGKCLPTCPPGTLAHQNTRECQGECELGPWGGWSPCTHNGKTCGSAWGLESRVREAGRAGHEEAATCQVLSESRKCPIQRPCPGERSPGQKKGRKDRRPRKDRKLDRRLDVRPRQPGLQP
T1 sequence (Q2MKA7 21-263 limits assumed): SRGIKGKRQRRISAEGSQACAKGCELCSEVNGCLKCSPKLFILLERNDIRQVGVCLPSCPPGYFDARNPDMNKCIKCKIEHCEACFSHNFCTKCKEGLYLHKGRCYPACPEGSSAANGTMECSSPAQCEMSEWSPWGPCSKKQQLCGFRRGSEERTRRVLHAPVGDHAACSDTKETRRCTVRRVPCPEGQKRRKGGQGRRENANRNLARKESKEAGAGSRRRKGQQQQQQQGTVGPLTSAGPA
T2 sequence (Q6UXX9 22-243 limits assumed): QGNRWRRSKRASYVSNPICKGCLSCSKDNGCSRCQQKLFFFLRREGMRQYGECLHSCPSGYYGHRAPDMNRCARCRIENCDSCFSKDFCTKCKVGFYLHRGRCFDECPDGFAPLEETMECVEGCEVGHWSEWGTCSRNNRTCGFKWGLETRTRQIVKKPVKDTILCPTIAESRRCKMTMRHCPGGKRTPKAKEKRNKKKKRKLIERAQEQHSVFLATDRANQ

B1: anti-RSPO3 hybridoma antibody B1 (antibody, IgG1, V domains shown)
VH: QIQLQESGPGLVKPSQSLSLTCSVTGYSITSGYYWNWIRQFPGNKLEWMGYISYDGTNNYNPSLKDRISITRDTSMNQFFLKLNSVTTEDTATYYCSVLLIQYFNIWGAGTTVTVSS
VL: DIQMTQSPASLSASVGETVTITCRTSESVNNFLAWFHQKQGKSPQLLVYHAKTLADGVSSRFSGSGSGTQYSLKINSLQPEDFGNYYCQHFWSIPWTFGGGTKLEIKR
notes: Murine hybridoma mAb; also called clone B1
binding result (RSPO1 [1]): no binding | binding result (RSPO2 [2]): no binding | binding result (RSPO4 [3]): no binding | binding result [4]: binds

B2: rosmantuzumab (131R010) (antibody, V domains shown)
VH: QVQLVQSGAEVKKPGASVKVSCKASGYTFTDYSIHWVRQAPGQGLEWIGYIYPSNGDSGYNQKFKNRVTMTRDTSTSTAYMELSRLRSEDTAVYYCATYFANNFDYWGQGTTLTVSS
VL: DIQMTQSPSSLSASVGDRVTITCKASQSVDYDGDSYMNWYQQKPGKAPKLLIYAASNLESGVPSRFSGSGSGTDFTLTISPVQAEDFATYYCQQSNEDPLTFGAGTKLELK
IC50 in the WNT reporter assay (MDA-MB436 TCF/LEF-Luc, Wnt3a plus hRSPO3) [5]: 58.7 nM | Kd [6]: 0.02 nM | koff [6]: 0.000181 s⁻¹ | kon [6]: 9.4e+06 M⁻¹ s⁻¹

B3: anti-RSPO3 hybridoma antibody A6 (antibody, IgG2a, V domains shown)
VH: QVQLQQSGAEIVRSGASVKLSCTASGFSITEYYIHWVKQRPDQGLEWIGMIDPENGDTDYAPKFQGKATMTADTSSNTVNLQLSSLTSEDTAVYYCHGPGPLEYWGQGTTLTVSS
VL: DIVMTQSPLSLPVSLGDQASISCRSSQSIVHSNGNTYLEWYLQKPGQSPNLLIYRVSNRFSGVPDRFNGSGSGTDFTLKISRVEPEDLGVYSCFQASHVPYTFGGGTKLEIKR
notes: Murine hybridoma mAb; also called clone A6; hybridoma A6
binding result (RSPO1 [7]): no binding | binding result (RSPO2 [8]): no binding | binding result (RSPO4 [9]): no binding | Kd [10]: 10.4 nM | koff [10]: 0.0025 s⁻¹ | kon [10]: 241000 M⁻¹ s⁻¹ | binding result (GKKGRERKRK): binds | binding result (ERGKKGRERK): binds | binding result (KGRERKRKKP): binds | binding result (RENKQQQKKR): binds

B4: anti-RSPO3 hybridoma antibody A4 (antibody, IgG1, V domains shown)
VH: QVQLQESGAELAKPGASVKMSCKASGHTLTYYWMHWVKQRPGQGLEWIGYIDPSTGYSEYNQRFEGKATLTADKSSGTVYMQLSSLTSEDSAVYYCARNGPFAYWGQGTLVTVSA
VL: DNVLTQSPAIMSASPGEKVTMTCSASSSVNYMYWYQQKPGSSPRLLIYDTSKLASGVPVRFSGSGSGTSYSLTISRMEAEDAATYYCQQWSSSPLTFGVGAKLEIKR
notes: Murine hybridoma mAb; also called clone A4; hybridoma A4
Kd [10]: 27 nM | koff [10]: 0.000884 s⁻¹ | kon [10]: 32700 M⁻¹ s⁻¹ | binding result (RSPO1 [11]): no binding | binding result (RSPO2 [12]): no binding | binding result (RSPO4 [13]): no binding

B5: reference anti-RSPO3 antibody 131R002 (antibody, V domains shown)
VH: QVQLQESGPELVKPGASVKISCKASGYTFTDYSIHWVKQNHGKSLDWIGYIYPSNGDSGYNQKFKNRATLTVDTSSSTAYLEVRRLTFEDSAVYYCATYFANYFDYWGQGTTLTVSS
VL: DIVLTQSPASLAVSLGQRATISCKASQSVDYDGDSYMNWYQQKPGQPPKLLIYAASNLESGIPARFSGSGSGTDFTLNIHPVEEEDAATYYCQQSNEDPLTFGAGTKLELKR
Kd [10]: 1.93 nM | koff [10]: 0.00202 s⁻¹ | kon [10]: 1.05e+06 M⁻¹ s⁻¹
